Measured values published in the DeepSol protein solubility set.

Test: soluble on expression in E. coli; label from the status in PepcDB or PDB records

Sequence	soluble on expression in E. coli
MSLVMGQEKLYIEKELSWLSFNERVLQEAADKSNPLIERMRFLGIYSNNLDEFYKVRFAELKRRIIISEEQGSNAHSRHLLGKIQSRVLKADQEFDGLYNELLLEMARNQIFLINERQLSVNQQNWLRHYFKQYLRQHITPILINPDTDLVQFLKDDYTYLAVEIIRSDSIRYALLEIPSDKVPRFVNLPPEAPRRRKPMILLDNILRYCLDDIFKGFFDYDALNAYSMKMTRDAEYDLVHEMEASLMELMSSSLKQRLTAEPVRFVYQRDMPNALVEVLREKLTISRYDSIVPGGRYHNFKDFINFPNVGKANLVNKPLPRLRHIWFDKAQFRNGFDAIRERDVLLYYPYHTFEHVLELLRQASFDPSVLAIKINIYRVAKDSRIIDSMIHAAHNGKKVTVVVELQARFDEEANIHWAKRLTEAGVHVIFSAPGLKIHAKLFLISRKENGEVVRYAHIGTGNFNEKTARLYTDYSLLTADARITNEVRRVFNFIENPYRPVTFDYLMVSPQNSRRLLYEMVDREIANAQQGLPSGITLKLNNLVDKGLVDRLYAASSSGVPVNLLVRGMCSLIPNLEGISDNIRAISIVDRYLEHDRVYIFENGGDKKVYLSSADWMTRNIDYRIEVATPLLDPRLKQRVLDIIDILFSDTVKARYIDKELSNRYVPRGNRRKVRAQLAIYDYIKSLEQPEEGHHHHHH	soluble
MSLDIAVVGIGYVGLVSATCFAELGANVRCIDTDRNKIEQLNSGTIPIYEPGLEKMIARNVKAGRLRFGTEIEQAVPEADIIFIAVGTPAGEDGSADMSYVLDAARSIGRAMSRYILIVTKSTVPVGSYRLIRKAIQEELDKREVLIDFDIASNPEFLKEGNAIDDFMKPDRVVVGVDSDRARELITSLYKPMLLNNFRVLFMDIASAEMTKYAANAMLATRISFMNDVANLCERVGADVSMVRLGIGSDSRIGSKFLYPGCGYGGSCFPKDVKALIRTAEDNGYRMEVLEAVERVNEKQKSILFDKFSTYYKGNVQGRCVAIWGLSFKPGTDDMREAPSLVLIEKLLEVGCRVRVYDPVAMKEAQKRLGDKVEYTTDMYDAVRGAEALFHVTEWKEFRMPDWSALSQAMAASLVIDGRNVYELPADSDFTLLNIGNSAIESEGHHHHHH	soluble
GSHMDTSLAEEVQQTMATLAPNRFFFMSPYRSFTTSGCFARFDEPAVNGDSPDSPFQQKLAALFADAKAQGIKNPVMVGAIPFDPRQPSSLYIPESWQSFSRQEKQASARRFTRSQSLNVVERQAIPEQTTFEQMVARAAALTATPQVDKVVLSRLIDITTDAAIDSGVLLERLIAQNPVSYNFHVPLADGGVLLGASPELLLRKDGERFSSIPLAGSARRQPDEVLDREAGNRLLASEKDRHEHELVTQAMKEVLRERSSELHVPSSPQLITTPTLWHLATPFEGKANSQENALTLACLLHPTPALSGFPHQAATQVIAELEPFDRELFGGIVGWCDSEGNGEWVVTIRCAKLRENQVRLFAGAGIVPASSPLGEWRETGVKLSTMLNVFGLH	soluble
MAHHHHHHMSGNDLLPLWIGTPQRGVTHDDTADPYTSKVGGQAVYFRLGASTAEQQSAGALSKYFQCPQCKSTAQVSLLCQVYAPLEVYDRVLYILTCAACTRRPRAAASLQGSVPAPALTTGTSKKSGLAAAARSHTSFCFALRSQNFSREHFAELQKQLRAEAQRATEDEKEKAENDAPLFGGGDDDWGDDADDWGTEEGPVKEAKPSPAEPLDDAGDKNGALEKTPNELPEFPLASRGMTVPLKGTLYTSGLPLDLYEEPPPKQTKELSIEEQLAAAKSMYGSSAALDTSGFEEDDEAPEERCVREYMEHMERTPSQCVRWCLGGTPLRTSTTPIGVNGSSLPPPCPACGAVRQFEMQLTAPVVFYLTKDIGEAKNTALHFSNVLVYTCSSNCYNTNSNLPYLPEYVVVEDEL	not soluble
MSLSRQCVLAGISRAALYARRKPKRIVQDDELLLRLIDEEYTRHPFYGSRKMVVHLGRCGHSVNRKWAQRLMRSLGLAGMAPGPNTSRAHPQHKVYPYLLRGVAISRPNQVWSTDITYIRLARGFAYLVAVIDWYSRRVLSWRISNSMETVFCVDCLEEALRIHGKPEVFNTDQGSQFTSEAFTSVLKREGVIISMDGRGRALDNIFVERLWRSVKHEDVYLKGYSAMGELLIGLTQYFTFYNGERPHQALKNLTPDVVYQRAQGGGAMIVDKYGAAQSLPMALRSTGTAFDEVRLALLCHVTHADAGLSWRCSEGTERKSRDEAWREGHHHHHH	not soluble
MGSDKIHHHHHHMNKTMWSIGFQKHLPINEEASLFRFETAVPQPEGRDLLVKVDAVSVNPIDVAVRKNGTETLDEPKVIGWDAVGTVIAKGASAGYFEIGDRVFYAGSFKRAGSDSEYQLVDERVVGHAPEKLSNAEAAAMPLTSLTAWEALFEQLEIDREDVQGNADKSILIINGAGGVGSIATQLAQKAGLHVIASASRPETIEWCLKHGADETVNHRNNLIDEVRNLGHQYVDYILELNNIDAHWDEMVELIKPNGRMTSITQNHEPVDLKALKHKRVTFAWEWMYTKSYYETPDMETQHVYLDEIARLLDAGELISTLTKQLSPINVENLKQAHKLVEGNHMMGKVVVENLED	not soluble
MSRSRSAAASSSQKPDDMDLMSPDGSASSPSAPNTPATNSGGFSSDRKKATHLRCERQRREAINSGYSDLKDLIPQTTTSLGCKTTNAAILFRACDFMSQLKTDISDADKQLAQLNAQAAALEMIASEYEQMASSVPDAGQSTIQVKMLQLLLDDCFTSFSSQVDFTTYATITRTLLSWVESLAPNAEPFKSTAGKMVTMPFTSP	not soluble
MGSDKIHHHHHHMTFKNDVDGCSYPGILSASRSTDIPAFYAEWFSRRLRDGYVVWKSPFNQKCYSVCFEKAGGIVFWTKNPKPLMPFLDEVSELGYDYYFQFTVNDYESEGFEPNVPPLDERIETFRSLSQKLGKERVIWRFDPICLTRELDVEGIMARLRSIGECLKGYTEQLVISFVDVHAYTKVQRNIKTADGFCLREPSMEEQDELARRISSYAKEIGVSPSACGERRSFAHFGILPNKCIDGELFKRICRKGNIKLQKHLGTYIDQYSLLSPQKKDVTLCKDKGQRKECGCVESKDIGMYNTCNHMCVYCYANTSQRVVEKNRVLHDVNGESLIPTSRTVEE	not soluble
PRLWEGQDVLARWTDGLLYLGTIKKVDSAREVCLVQFEDDSQFLVLWKDISPAAL	soluble
MSLKFPRKGIPQEEVMRELEKYTSKDLSFSSGKILGSMCTLPHELAKEVFCMYMDRNLGDPGLHPGTKKIEEEVIEMLSDLLHLERGYGHIVSGGTEANILAVRAFRNLADVENPELILPKSAHFSFIKAGEMLGVKLIWADLNPDYTVDVKDVEAKISENTIGIVGIAGTTGLGVVDDIPALSDLARDYGIPLHVDAAFGGFVIPFAKELGYDLPDFDFKLKGVQSITIDPHKMGMAPIPAGGIVFRHKKYLRAISVLAPYLAGGKIWQATITGTRPGASVLAVWALIKHLGFEGYMEIVDRAMKLSRWFAEEIKKTPGAWLVREPMLNIVSFKTKNLRRVERELKSRGWGISAHRGYIRIVSHASCDGGHDEGHHHHHH	soluble
MGSDKIHHHHHHMPSSTTLQHAIENITIWRKGEQRAPHKPLLLLYVLSQYQRGHARMFDYASEIRDELHSLLERFGPQRRQYRPDMPFWRLKGDGFWELHNSDQCSTQGSRQPPGKELELCHVAGGFDEPHFALLNRNKRLINTLAHQILEAHFPESIQEELAEEMGFDLQQIRKERDPHFRQQVLRAYNYECAICGFNMRHDNTSVALEAAHIKWKQHGGPCEIPNGLALCAIHHKAFDKGSIGLDEDMRIQVSPAVNGGGIVGRLFWDFDGKPITLPQGKECYPQEGFVAWHRREVFRG	not soluble
MGKLYVVPTPVGNLEDMTFRAIRVLKEVDLILAEDTRTSGILLKHFEIKNAMQSHHKFNEHKTVESVVNRIKAGETVALISDAGTPGISDPGFLVVRECVRNGIEVQCLPGATAFVPALVASGLPNEKFCFEGFLPQKKGRQTRLKALAEEHRTMVFYESPHRLLKTLTQFAEYFGTERQATVSREISKLHEETVRGSLAELIEHFTATEPRGEIVIVLAGIDD	soluble
MPATTSIPPVTAPGTGGEASSFNVDELIQYVLQGKPLSEPQVARLCQKAREVLEKEENVHTVRAPVTVCGDIHGQFHDLLELLKIGGLPPDTNYLFMGDYVDRGYYSVETVTLLLLFKIRYPERVQILRGNHESRQITQVYGFYDECVRKYGSANVWKLLTDLFDYLPLAAVVENEIFCLHGGLSPTLDSLAHIRSLERVQEVPHEGPMCDLLWSDPEDKDGWGISPRGAGFTFGADITEQFCHNNGLKTIARAHQLVAEGYSWAHSDKLVTIFSAPNYCYRCGNLAGLLELDEHMNKCFFQFDPAPRRGEAQVSKKTPDYFL	not soluble
